Values of other authors, collected in paper PMC4317059.

Experiments:
[1] = target: Asp143 (UniProt position 144, GNAGSDLACGV); experiment: kinetics
[2] = target: Glu143 (UniProt position 144, GNAGSELACGV); experiment: kinetics

In the case of “Cu,Zn superoxide dismutase (SOD1) Arg143Asp mutant (Homo sapiens; R143D)”, the pKa [1] is given as “ca. 6.2”.

For “Cu,Zn superoxide dismutase (SOD1) Arg143Glu mutant (Homo sapiens; R143E)”, the pKa [2] is listed as “ca. 6.2”.
